One may read the stoichiometry N as the number of molecules, sites or subunits per partner or assembly.

The test has as its target CLPP, ATP-dependent Clp protease proteolytic subunit, mitochondrial (mouse (endogenous in mouse tissues)) (UniProt O88696). As to the kind of experiment: native gel or EMSA; complexome profiling: mitochondria of WT and CLPP-null mouse testis, brain and heart (sucrose gradients), solubilised with digitonin, blue native electrophoresis on a 3 to 18% gradient gel, 48 slices, label-free mass spectrometry; co-migration read from the profiles. For orientation: Mobility shift assays separate free from complexed probe on a gel.

CLPP, ATP-dependent Clp protease proteolytic subunit, mitochondrial, O88696 53-272 (natural protein; other documents disagree on this pair), sequence (O88696 53-272): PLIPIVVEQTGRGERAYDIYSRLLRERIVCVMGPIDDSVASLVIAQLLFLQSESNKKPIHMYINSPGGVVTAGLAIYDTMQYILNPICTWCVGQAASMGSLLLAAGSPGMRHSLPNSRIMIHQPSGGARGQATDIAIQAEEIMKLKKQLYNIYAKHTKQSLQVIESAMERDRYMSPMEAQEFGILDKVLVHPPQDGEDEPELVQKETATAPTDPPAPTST

Take “CLPP, ATP-dependent Clp protease proteolytic subunit, mitochondrial, O88696 53-272 (natural protein; other documents disagree on this pair)”: the stoichiometry N was determined as 7.

The values above are taken from paper PMC10743472.
